Laboratory results reported in IntAct's records for PubMed 20543817.

B1: Neuroligin-2 (Rattus norvegicus (Rat)), Q62888-2 (parent)
chain: MWLLALCLVGLAGAQRGGGGPGGGAPGGPGLGLGSLGEERFPVVNTAYGRVRGVRRELNNEILGPVVQFLGVPYATPPLGARRFQPPEAPASWPGVRNATTLPPACPQNLHGALPAIMLPVWFTDNLEAAATYVQNQSEDCLYLNLYVPTEDDIRDSGKKPVMLFLHGGSYMEGTGNMFDGSVLAAYGNVIVATLNYRLGVLGFLSTGDQAAKGNYGLLDQIQALRWLSENIAHFGGDPERITIFGSGAGASCVNLLILSHHSEGLFQKAIAQSGTAISSWSVNYQPLKYTRLLAAKVGCDREDSTEAVECLRRKSSRELVDQDVQPARYHIAFGPVVDGDVVPDDPEILMQQGEFLNYDMLIGVNQGEGLKFVEDSAESEDGVSASAFDFTVSNFVDNLYGYPEGKDVLRETIKFMYTDWADRDNGEMRRKTLLALFTDHQWVAPAVATAKLHADYQSPVYFYTFYHHCQAEGRPEWADAAHGDELPYVFGVPMVGATDLFPCNFSKNDVMLSAVVMTYWTNFAKTGDPNQPVPQDTKFIHTKPNRFEEVVWSKFNSKEKQYLHIGLKPRVRDNYRANKVAFWLELVPHLHNLHTELFTTTTRLPPYATRWPPRTPGPGTSGTRRPPPPATLPPESDIDLGPRAYDRFPGDSRDYSTELSVTVAVGASLLFLNILAFAALYYKRDRRQELRCRRLSPPGGSGSGVPGGGPLLPTAGRELPPEEELVSLQLKRGGGVGADPAEALRPACPPDYTLALRRAPDDVPLLAPGALTLLPSGLGPPPPPPPPSLHPFGPFPPPPPTATSHNNTLPHPHSTTRV
B2: Neuroligin-1 (Rattus norvegicus (Rat)), Q62765-2 (parent)
chain: MALPRCMWPNYVWRAMMACVVHRGSGAPLTLCLLGCLLQTFHVLSQKLDDVDPLVTTNFGKIRGIKKELNNEILGPVIQFLGVPYAAPPTGEHRFQPPEPPSPWSDIRNATQFAPVCPQNIIDGRLPEVMLPVWFTNNLDVVSSYVQDQSEDCLYLNIYVPTEDDIRDSGGPKPVMVYIHGGSYMEGTGNLYDGSVLASYGNVIVITVNYRLGVLGFLSTGDQAAKGNYGLLDLIQALRWTSENIGFFGGDPLRITVFGSGAGGSCVNLLTLSHYSEGLFQRAIAQSGTALSSWAVSFQPAKYARILATKVGCNVSDTVELVECLQKKPYKELVDQDVQPARYHIAFGPVIDGDVIPDDPQILMEQGEFLNYDIMLGVNQGEGLKFVENIVDSDDGVSASDFDFAVSNFVDNLYGYPEGKDVLRETIKFMYTDWADRHNPETRRKTLLALFTDHQWVAPAVATADLHSNFGSPTYFYAFYHHCQTDQVPAWADAAHGDEVPYVLGIPMIGPTELFPCNFSKNDVMLSAVVMTYWTNFAKTGDPNQPVPQDTKFIHTKPNRFEEVAWTRYSQKDQLYLHIGLKPRVKEHYRANKVNLWLELVPHLHNLNDISQYTSTTTKVPSTDITLRPTRKNSTPVTSAFPTAKQDDPKQQPSPFSVDQRDYSTELSVTIAVGASLLFLNILAFAALYYKKDKRRHDVHRRCSPQRTTTNDLTHAPEEEIMSLQMKHTDLDHECESIHPHEVVLRTACPPDYTLAMRRSPDDVPLMTPNTITMIPNTIPGIQPLHTFNTFTGGQNNTLPHPHPHPHSHSTTRV

Variants of: B1
Settings: with Nrxn1, Q63373-3
Target sequence in this assay (Q63373 other isoform, or with tags, fused parts or gaps): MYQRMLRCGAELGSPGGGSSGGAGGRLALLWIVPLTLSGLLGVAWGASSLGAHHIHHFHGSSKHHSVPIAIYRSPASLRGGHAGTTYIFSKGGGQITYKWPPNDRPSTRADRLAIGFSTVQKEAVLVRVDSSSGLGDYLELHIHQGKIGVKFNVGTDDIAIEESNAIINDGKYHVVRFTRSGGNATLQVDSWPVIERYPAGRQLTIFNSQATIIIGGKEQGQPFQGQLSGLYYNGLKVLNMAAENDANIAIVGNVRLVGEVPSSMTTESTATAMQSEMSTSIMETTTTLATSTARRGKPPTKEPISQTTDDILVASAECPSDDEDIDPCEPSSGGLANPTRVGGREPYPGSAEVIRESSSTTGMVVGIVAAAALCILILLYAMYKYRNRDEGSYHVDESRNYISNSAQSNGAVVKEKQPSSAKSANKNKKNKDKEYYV

Row | Variant | effect of a mutation on the interaction
1 | Q458G | increasing interaction

Variants of: B2
Settings: with Nrxn1, Q63373-3
Target sequence in this assay (Q63373 other isoform, or with tags, fused parts or gaps): as above

Row | Variant | effect of a mutation on the interaction
2 | G471A | disrupting interaction
